# Experimental data from the DeepSol protein solubility set.
# Experiment: soluble on expression in E. coli; label from the status in PepcDB or PDB records
row,Sequence,soluble on expression in E. coli
1,MIPPSSPREDGVDGLPKEAVGAEQPPSPASTSSQESKLQKLKRSLSFKTKSLRSKSADNFFQRTNSEDMKLQAHMVAEISPSSSPLPAPGSLTSTPARAGLHPGGKAHAFHEYIFKKPTFCDVCNHMIVGTNAKHGLRCKACKMSIHHKCTDGLAPQRCMGKLPKGFRRYYSSPLLIHEQFGCIKEVMPIACGNKVDPVYETLRFGTSLAQRTKKGSSGSGSDSPHRTSTSDLVEVPEEANGPGGGYDLRKRSNSVFTYPENGTDDFRDPAKNINHQGSLSKDPLQMNTYVALYKFVPQENEDLEMRPGDIITLLEDSNEDWWKGKIQDRIGFFPANFVQRLQQNEKIFRCVRTFIGCKEQGQITLKENQICVSSEEEQDGFIRVLSGKKKGLIPLDVLENI,soluble
2,MIPTTATVDDEPGQIKRALIDASAGAISGGVSRSVTSPLDVIKIRFQVQLEPTTSWGLVRGNLSGASKYTGMVQATKDIFREEGFRGFWRGNVPALLMVMPYTSIQFTVLHKLKSFASGSTKTEDHIHLSPYLSFVSGALAGCAATLGSYPFDLLRTILASQGEPKVYPTMRSAFVDIIQSRGIRGLYNGLTPTLVEIVPYAGLQFGTYDMFKRWMMDWNRYKLSSKIPINVDTNLSSFQLFICGLGAGTSAKLVCHPLDVVKKRFQIEGLQRHPRYGARVERRAYRNMLDGLRQIMISEGWHGLYKGIVPSTVKAAPAGAVTFVAYEFTSDWLESISW,soluble
3,MIPVVYSNLCPVCGGDLESKEIEKHVCFRKKRSLCLFPEDFLLKEFVEFFRKCVGEPRAIQKMWAKRILRKESFAATAPTGVGKTSFGLAMSLFLALKGKRCYVIFPTSLLVIQAAETIRKYAEKAGVGTENLIGYYHGRIPKREKENFMQNLRNFKIVITTTQFLSKHYRELGHFDFIFVDDVDAILKASKNVDKLLHLLGFHYDLKTKSWVGEARGCLMVSTATAKKGKKAELFRQLLNFDIGSSRITVRNVEDVAVNDESISTLSSILEKLGTGGIIYARTGEEAEEIYESLKNKFRIGIVTATKKGDYEKFVEGEIDHLIGTAHYYGTLVRGLDLPERIRFAVFVGCPSFRVTIEDIDSLSPQMVKLLAYLYRNVDEIERLLPAVERHIDEVREILKKVMGKERPQAKDVVVREGEVIFPDLRTYIQGSGRTSRLFAGGLTKGASFLLEDDSELLSAFIERAKLYDIEFKSIDEVDFEKLSRELDESRDRYRRRQEFDLIKPALFIVESPTKARQISRFFGKPSVKVLDGAVVYEIPMQKYVLMVTASIGHVVDLITNRGFHGVLVNGRFVPVYASIKRCRDCGYQFTEDRESCPKCGSENVDNSRSRIEALRKLAHDAEFVIVGTDPDTEGEKIAWDLKNLLSGCGAVKRAEFHEVTRRAILEALESLRDVDENLVKAQVVRRIEDRWIGFVLSQKLWERFNNRNLSAGRAQTLVLGWIIDRFQESRERRKIAIVRDFDLVLEHDEEEFDLTIKLVEEREELRTPLPPYTTETMLSDANRILKFSVKQTMQIAQELFENGLITYHRTDSTRVSDVGQRIAKEYLGDDFVGREWGESGAHECIRPTRPLTRDDVQRLIQEGVLVVEGLRWEHFALYDLIFRRFMASQCRPFKVVVKKYSIEFDGKTAEEERIVRAEGRAYELYRAVWVKNELPTGTFRVKAEVKSVPKVLPFTQSEIIQMMKERGIGRPSTYATIVDRLFMRNYVVEKYGRMIPTKLGIDVFRFLVRRYAKFVSEDRTRDLESRMDAIERGELDYLKALEDMYAEIKSID,soluble
4,MIQDETLEREVADLVISTLNLDVSPESVDPEAPLYREGLGLDSIDILEIALVVSKRYGFQLRADNEDNVLEHHHHHH,not soluble
5,MIREKALEFHKNNFPGNGKIEVIPKVSLESREELTLAYTPGVAEPCKEIARDPGKVYEYTSKGNLVAVVSDGSRILGLGNIGPLAGLPVMEGKALLFKRFGGVDAFPIMIKEQEPNKFIDIVKAIAPTFGGINLEDIASPKCFYILERLREELDIPVFHDDQQGTAAVVLAGLLNALKVVGKKISEITLALFGAGAAGFATLRILTEAGVKPENVRVVELVNGKPRILTSDLDLEKLFPYRGWLLKKTNGENIEGGPQEALKDADVLISFTRPGPGVIKPQWIEKMNEDAIVFPLANPVPEILPEEAKKAGARIVATGRSDYPNQINNLLGFPGIFRGALDVRARTITDSMIIAAAKAIASIVEEPSEENIIPSPLNPIVYAREARAVAEEAMKEGVARTKVKGEWVEEHTIRLIEFYENVIAPINKKRREYSKAITRA,soluble
6,MIRILLSNDDGISAPGIQTLASALRGFAQVQIVAPDRNRSGASNALTLDSALRITTLSNGDIAVQQGTPTDCVYLGVNALMRPRPDIVVSGINAGPNLGDDVIYSGTVAAAMEGRHLGYPALAVSLNGHQHYDTAAAVTCRLLRALQRKPLRTGKILNINVPDLPLAEIKGIRVTRCGSRHPAEQVFCQQDPRGQDLYWIGPPGEKYDAGPDTDFAAVEQGYVSITPLQVDLTAYMAQEVVESWLANTEVDGEW,not soluble
7,MIRLTNIKLPLDHQEHELEQAILTKLSIKAVQLIKFTVFKRGYDARKKNSIFLIYTLDVETNVDEALLATFIADTQVKETPDMAYKFVSQAPKNLKNRPVVIGMGPCGLFVGLVLAQMGFNPIVLERGQEVRQRTKDTFGFWRKKILNTESNVQFGEGGAGTFSDGKLYSQVKDPKHYSRKVLHEFVAAGAPEEILYVSKPHIGTFKLVTMVEKMRAKIFELGGEVRFNQRVDKIHFTDVEGNECTAQGIEGYQNKKVTGLTLSNGDHIETNYIALAIGHSARDTFSMLFDEDVYMKAKPFSVGFRIEHEQAVIDEARFGNNAGNEILGSADYKLVHHCSNGRSVYSFCMCPGGTVVAAASEEGRLVTNGMSQYSRLERNANSAIVVGIEPEDFITSEFASDRDYVLAGMEFQRNLEAKAFKLGGESYDAPVQLVGDFLAGRKSGEHGSVAPSYKPGVTYCDLSETLPDYAIAAIREALPAFDKKIKGFSMAEATLTAVETRTSSPIQITRDKETLQSLNAQGLYPAGEGAGYAGGILSAGIDGIKIAEAMALAITAEQEHLEHHHHHH,not soluble
8,MIRVCNQIGIPYYAVNFEKQYYEKVFQYFLDEYKAGRTPNPDVLCNKEIKFKAFLEHALSLGADYLATGHYARVDRSGGKVRMLRGIDENKDQTYFLNQLTEDTLSKVMFPIGELQKSRVREIAKEAELATATKKDSTGICFIGERNFKTFLSQYLPAQPGDMMTMDGEVKGRHDGLMYYTIGQRHGLGIGGSGEPWFAVGKDLEKNILYVDQGFHNPLLYSDKITATNISWVRSDIMKGEEISCTAKFRYRQEDHKVTVRMTGEGEAEVIFDEQVRAVTPGQAVVFYDGEECLGGGTIDDVYKDGTKLWYV,not soluble
9,MIRVIFLDLDKTLLPEYDPEPAIPIVEELKKKGFEIVFNSSKTRAEQEYYREKLNVKGPFIVENGSAIYIPSNYFPFEVPGVKRGEYMVLELGVKVEEIRKALKELEAEYGLKYYGNSTDEEIEKFTKLPKHLIPLAKDREYSETIFLWKREGWEKDLIRKGFKVTMGSRFYAVHGNSDKGKAAKLLLDLYKRVDEVESYAVGDGENDFPMFDVVDFAFLIGDLRHENAENVTSIKDVLKKIAAALEHHHHHH,soluble
10,MIRVMLSQLSSVLNARLIGEDRAVSAVSTDSRAIPAEALFVALVGERFDAHDFASQAVTGGAVALLVERELDAECSQLVVADTKQALGQLGSWVHAQCQTPTVAITGSCGKTTVKEMVASILSQKGQVLYTQGNFNNDIGVPLTLLRSTTEDDYAVIELGANHVGEIAYTTALVKPDVALVNNVAAAHLEGFGSMDGVKRAKGEIYQGLQAGAVAIVNLDSNGGDYWKAVLADKTVKTFSATDHNADFYPRDVRLNALGIASFTLVTPVGEVGVELGIMGQHNVANALAAAALSLEMGASLAEIGQGLAHLSKVKGRVDMAQLRDDITLIDDSYNASVPAMKAAVELLGSFSAVRWLILGNMAELGDESLALHQQVGEHAAPFGFEFVLTYGKDAKVISDLCQGHHFATHQDMMTFIEQHIEQQQGRTQVLLVKGANSAGMSKIAAALKEKFA,not soluble
11,MISANKQFDIQLGDEIGKDFFTQDTVVCAFRNKEKTTDFVFTSGPIILICDGTTRRKMIKRRFKMEFDIKKVFFHSFIVTRNAEKLATENCGGPDTKHRDYLVVCGEHKLQFISLPDYHFYHYEIPFKLRNVFSCSTSLLVERFYDSSSEQTFHHHDTFHLYSLSGPFGELLPVIYKTSGYHPQWKFCWQSHRDEAGLVDAQQNYVVVYDQKEKTHRIYMARETQEQEVHAAIRYVEALRRPSDSTMFASSLAPNSAGRTTHFDPTLNSPAENVLSEVISSEIDSRSPFTPHLRSGFGHSTPNNPNAPGYPATLPTPNFEGNFFF,not soluble
12,MISAPGIGSGLDVSGIISKLMEIEQQPLTQLNTKEAKQQAQLSAFGSLKSVLSTFQDSVKALAKPALFNGYKATLADTTAATVSTSSSASAGTHDIEVQSLAQAQKIKSEAFATTDTVIGSGTLTIEFGTYNEDGTFTANAEKTAKTITIDPAKSTLADIRSAINEANAGVTASIVNDGSGNRLVISSKDSGLANALKISVNDTDGNHTDNAGLSKLAFDASTGGVSNMTETVAARNAVMVIDGIPVTKSSNTINDALEGVTFNLLKANPGTTTTLTVEKDKSNVEAAVNAFVKAYNDLEKTIGNLSRYDAANKQASVLTGDSTMRMIQNRMRAMLGGNQSAAGGINSLSELGISFQKDGTLALDNNKLSAVLNNPDKNIAAFFTTQGGDDTTSVEGFASRLSELIDGMTRSDGLISSRMDGINSTIKGIGKQREALEFRLESVEKRLRAQFTALDTMIASMNQTSNYLQQQLANLPKIGE,not soluble
13,MISRTFLLLFFVFSISKCEVQLGCTSPPLPDANGLCPDGYTLITAGGCCPDSDVYIISATTTTTTTTQAPTTTASSGSCQDKVNPKTGVSDCPGMKAYCNNPAYVSVMKDQCPKTCGYCSSSATTAGTCQDKINPSTGRSDCPGMAAYCNNPVYHDVMKDQCPKTCGYC,not soluble
14,MISSSLPSSNAASSSEGRITQAKDVQGFSQRSASGQTPLNQSAALSEQAVPSFRLAAQTFSSEERKEATTATTEENAAVDTTGMNVLLSATTPTETPDLAAQAQTLTQGMLNMAEKSVASFNKVNPLEIKGEAKTTSPAQANALLNTSPQQQDIQTSQTTSANARVNTSAVDFQALLNQPAQGQATTAPLNVQTSAPSAQAVSAATVAHAHTQGSEWAAVKVDTSAGKWGEQMMQVLHDRVTLQAQQSVQEAKIRLDPPDLGKLDLLVRVEGDRLSVQINANTAATREALMQVSERLRTELQEQNFVHVDVNVGADQGQERHQQQMNDEDTTIFAARESSAFQSNTTTNYSEHWLNTQA,not soluble
15,MISTNGITMQFGAKPLFENVSVKFGEGNRYGLIGANGSGKSTFMKILGGDLEQTAGEVAIENGVRLGKLRQDQFAYEDMRVLDVVMMGHTEMWAAMTERDAIYANPEATEDDYMKAAELEAKFAEYDGYTAEARAAELLSGVGISEDLHNAKMAEVAPGFKLRVLLAQALFSKPDVLLLDEPTNNLDINTIRWLEGVLNQYDSTMIIISHDRHFLNEVCTHMADLDYNTITIYPGNYDDYMLASAQSRERALKDNAKAKEKLQELQEFVARFSANKSKARQATSRLKQADKIKSEMVEVKPSTRQNPYIRFEADEKAKLHRQAVEVEKLAKRFETQLFKNLNFILEAGQRLAIIGPNGAGKSTLLKLLAGAYNPEYSDGLLPDEGTIKWAEKASVGYYPQDHENDFDVDMDLSEWMRQWGQEGDDEQVIRGTLGRLLFGSNDVVKKVKVLSGGEKGRMLYGKLLLLKPNVLVMDEPTNHMDMESIESLNMALEKYNGTLIFVSHDRQFVSSLATQIIELDGKGGYEHYLGDYESYLEKKGVA,not soluble
16,MITAYIALGSNLNTPVEQLHAALKAISQLSNTHLVTTSSFYKSKPLGPQDQPDYVNAVAKIETELSPLKLLDELQRIENEQGRVRLRRWGERTLDLDILLYGNEIIQNERLTIPHYDMHNREFVIVPLFEIASDLVLPNSQIITELVKQFADHKMIKLNP,soluble
